The experiment has as its target retromer–SNX3 complex (VPS26A, VPS35-VPS29 fusion, SNX3) (human) (UniProt Q96QK1).

Take AQPELYLLNTMDADSLVSR [DMT1-II cargo peptide (residues 550-568)]: the mean tube length per liposome (liposome tubulation with retromer and SNX3) stood at 568 nm; the proportion of liposomes tubulated (cryo-EM; 2.5 uM retromer, 8.75 uM SNX3, 25 uM peptide, 600 uM liposomes, overnight at 4°C; n = 3) came out at 4.15%.

KRQKGKPKRKSKYKILDAT [AAVR cytosolic tail peptide (residues 956-974)] registered a mean tube length per liposome (liposome tubulation with retromer and SNX3) of 503 nm; a proportion of liposomes tubulated (cryo-EM; 2.5 uM retromer, 8.75 uM SNX3, 25 uM peptide, 600 uM liposomes, overnight at 4°C; n = 3) of 3.54%.

The molecule KRQKGKPKRKSK [AAVR cytosolic tail peptide lacking the predicted sorting signal (residues 956-967)] registered a proportion of liposomes tubulated (cryo-EM; liposomes with retromer, SNX3 and the peptide lacking the motif) of 0%.

Source of the values: PMC13483459.
